Test results: US20260210939A1, “MODIFIED OLFACTORY RECEPTORS” (GIVAUDAN SA, priority 2022, published 2026)

Tests used:
OR5B12 = biological target: T1, OR5B12 (Homo sapiens, UniProt Q96R08, C141R); assay: CRE-luciferase assay, HEK293T cells expressing OR5B12 (wild-type / modified C-terminus); assay type: cell-based; details: for Fold-improvement potency / Fold-improvement threshold: changed C-term. vs wild-type; for % of the activation by the optimized sequence RNKEVKDALKRLLKRKCC: OR5B12 variant
T1 construct: Improved functional expression of modified OR-genes containing the truncated, optimized C-terminus; expressed in transfected cells; host or cells: HEK293T stably expressing human RTP1S(V227I) and RTP2(L220R)
T1 sequence (Q96R08 with tags, fused parts or gaps C141R): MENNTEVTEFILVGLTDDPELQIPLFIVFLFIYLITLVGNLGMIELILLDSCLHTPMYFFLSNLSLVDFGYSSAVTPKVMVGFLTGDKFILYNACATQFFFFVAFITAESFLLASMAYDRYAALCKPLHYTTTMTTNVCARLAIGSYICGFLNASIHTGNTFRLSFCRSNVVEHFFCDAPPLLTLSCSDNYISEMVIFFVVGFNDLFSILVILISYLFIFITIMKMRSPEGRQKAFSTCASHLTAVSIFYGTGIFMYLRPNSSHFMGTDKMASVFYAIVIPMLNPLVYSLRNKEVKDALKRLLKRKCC

OR7C1 = biological target: T2, OR7C1 (Homo sapiens, UniProt O76099, D296E/G302K/M297V/R299D/T295K/V126I); assay: CRE-luciferase assay, HEK293T cells expressing OR7C1 (wild-type / modified C-terminus); assay type: cell-based; details: OR7C1 variant, 1 μM Ambermax
T2 construct: Improved functional expression of modified OR-genes containing the truncated, optimized C-terminus; expressed in transfected cells; host or cells: HEK293T stably expressing human RTP1S(V227I) and RTP2(L220R)
T2 sequence (O76099 with tags, fused parts or gaps V126I/T295K/D296E/M297V/R299D/G302K): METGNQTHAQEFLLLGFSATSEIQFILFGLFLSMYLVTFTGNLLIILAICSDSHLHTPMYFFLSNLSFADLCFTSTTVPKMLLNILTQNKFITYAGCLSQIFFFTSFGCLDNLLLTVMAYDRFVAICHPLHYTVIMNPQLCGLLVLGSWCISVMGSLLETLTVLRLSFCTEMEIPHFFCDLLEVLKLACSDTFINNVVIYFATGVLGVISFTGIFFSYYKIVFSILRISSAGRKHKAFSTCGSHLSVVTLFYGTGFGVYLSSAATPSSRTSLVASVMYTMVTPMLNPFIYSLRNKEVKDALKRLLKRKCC
Description: To test for possible variants of the sequence […]CC (SEQ ID NO: 86) leading to similar improved functional expression, different point mutations were introduced into the first 16 amino acids of this sequence (corresponding to […], SEQ ID NO: 10) and the variants were fused after the TM7 with OR7C1. […] The test concentrations were selected to fall into the range of partial activity of the wild-type sequence.

Molecule | % of the activation by the optimized sequence RNKEVKDALKRLLKRKCC (OR7C1) | also measured
CCCCCC1C(=O)CCC1CC(=O)OC (racemic) [Hedione HC, reference compound] |  | Comments on efficacy (OR5B12): 4-fold lower; Detection threshold; concentration for 2-fold induction (OR5B12; changed C-term. SEQ ID NO: 86): 8.8 µM; EC50 (OR5B12; changed C-term. SEQ ID NO: 86): 18.3 µM; Fold-improvement potency (OR5B12): 3.8; Fold-improvement threshold (OR5B12): 11; Detection threshold; concentration for 2-fold induction (OR5B12; wild-type): 96 µM; EC50 (OR5B12; wild-type): 69 µM
CCCCCC1C(=O)CCC1CC(=O)OC (centres unmarked) [Hedione, reference compound] |  | Comments on efficacy (OR5B12): type only 1.75-; Detection threshold; concentration for 2-fold induction (OR5B12; changed C-term. SEQ ID NO: 86): 29 µM; EC50 (OR5B12; changed C-term. SEQ ID NO: 86): 58.3 µM; Fold-improvement potency (OR5B12): >5; Fold-improvement threshold (OR5B12): >9; Detection threshold; concentration for 2-fold induction (OR5B12; wild-type): (>>250) μM; EC50 (OR5B12; wild-type): > 250 µM
SEQ ID NO: 120 (RNKEVKDALKRLLRRRCC; source 1..18: note = C-terminal domain sequence) | 90.4% | 
SEQ ID NO: 123 (RNKEVKRALKRLLKRKRR; source 1..18: note = C-terminal domain sequence) | 312.9% | 
SEQ ID NO: 124 (RNKEVKRALKRLLKRKYP; source 1..18: note = C-terminal domain sequence) | 239.7% | 
SEQ ID NO: 125 (RNKEVKRALKRLLKRKRF; source 1..18: note = C-terminal domain sequence) | 254.2% | 
SEQ ID NO: 126 (RNKEVKRALKRLLKRKFK; source 1..18: note = C-terminal domain sequence) | 280.9% | 
SEQ ID NO: 127 (RNKEVKKALKRLLKRKRR; source 1..18: note = C-terminal domain sequence) | 308.5% | 
SEQ ID NO: 128 (RNKEVKKALKRLLKRKYP; source 1..18: note = C-terminal domain sequence) | 206.9% | 
SEQ ID NO: 129 (RNKEVKKALKRLLKRKRF; source 1..18: note = C-terminal domain sequence) | 294.8% | 
SEQ ID NO: 130 (RNKEVKKALKRLLKRKFK; source 1..18: note = C-terminal domain sequence) | 286.4% | 
SEQ ID NO: 134 (RNKEVKDALKRLLKRKCCC; source 1..19: note = C-terminal domain sequence) |  | % of the activation by the optimized sequence RNKEVKDALKRLLKRKCC (OR5B12; 31 μM Hedione HC): 168.91%; % of the activation by the optimized sequence RNKEVKDALKRLLKRKCC (OR5B12; 62.5 μM Hedione HC): 121.37%
SEQ ID NO: 135 (RNKEVKDALKRLLKRKCCF; source 1..19: note = C-terminal domain sequence) |  | % of the activation by the optimized sequence RNKEVKDALKRLLKRKCC (OR5B12; 31 μM Hedione HC): 207.32%; % of the activation by the optimized sequence RNKEVKDALKRLLKRKCC (OR5B12; 62.5 μM Hedione HC): 127.22%
SEQ ID NO: 136 (RNKEVKDALKRLLKRKCCL; source 1..19: note = C-terminal domain sequence) |  | % of the activation by the optimized sequence RNKEVKDALKRLLKRKCC (OR5B12; 31 μM Hedione HC): 533.84%; % of the activation by the optimized sequence RNKEVKDALKRLLKRKCC (OR5B12; 62.5 μM Hedione HC): 189.64%
SEQ ID NO: 137 (RNKEVKDALKRLLKRKCCM; source 1..19: note = C-terminal domain sequence) |  | % of the activation by the optimized sequence RNKEVKDALKRLLKRKCC (OR5B12; 31 μM Hedione HC): 177.47%; % of the activation by the optimized sequence RNKEVKDALKRLLKRKCC (OR5B12; 62.5 μM Hedione HC): 182.76%
SEQ ID NO: 154 (RNKEVKDALKRLLKRKCRRRR; source 1..21: note = C-terminal domain sequence) | 263.5% | 
SEQ ID NO: 157 (RNKEVKDALKRLLKRKCRRRRR; source 1..22: note = C-terminal domain sequence) | 204.3% | 
SEQ ID NO: 158 (RNKEVKDALKRLLKRKCRRRKK; source 1..22: note = C-terminal domain sequence) | 168.8% | 
SEQ ID NO: 186 (KNKEVKDALKRLLKRKCC; source 1..18: note = C-terminal domain sequence) | 26.0% | 
SEQ ID NO: 187 (RTKEVKDALKRLLKRKCC; source 1..18: note = C-terminal domain sequence) | 3.3% | 
SEQ ID NO: 188 (RQKEVKDALKRLLKRKCC; source 1..18: note = C-terminal domain sequence) | 28.5% | 
SEQ ID NO: 189 (RNHEVKDALKRLLKRKCC; source 1..18: note = C-terminal domain sequence) | 16.2% | 
SEQ ID NO: 190 (RNKEVKDGLKRLLKRKCC; source 1..18: note = C-terminal domain sequence) | 4.6% | 
SEQ ID NO: 191 (RNKEVKDVLKRLLKRKCC; source 1..18: note = C-terminal domain sequence) | 3.9% | 
SEQ ID NO: 192 (RNKEVKDAMKRLLKRKCC; source 1..18: note = C-terminal domain sequence) | 27.0% | 

Molecule | % of the activation by the optimized sequence RNKEVKDALKRLLKRKCC (OR7C1) | also measured
SEQ ID NO: 193 (RNKEVKDALKHLLKRKCC; source 1..18: note = C-terminal domain sequence) | 12.3% | 
SEQ ID NO: 194 (RNKEVKDALKRVVKRKCC; source 1..18: note = C-terminal domain sequence) | 30.4% | 
SEQ ID NO: 195 (RNKEVKDALKRLRKRKCC; source 1..18: note = C-terminal domain sequence) | 14.1% | 
SEQ ID NO: 196 (RNKEVKDALKRLKKRKCC; source 1..18: note = C-terminal domain sequence) | 5.7% | 
SEQ ID NO: 197 (RNKEVKDALKRLLERKCC; source 1..18: note = C-terminal domain sequence) | 5.6% | 
SEQ ID NO: 321 (RNKEVKCALKRLLKRKCC; source 1..18: note = C-terminal domain sequence) | 46.0% | 
SEQ ID NO: 322 (RNKEVKFALKRLLKRKCC; source 1..18: note = C-terminal domain sequence) | 41.1% | 
SEQ ID NO: 323 (RNKEVKHALKRLLKRKCC; source 1..18: note = C-terminal domain sequence) | 65.6% | 
SEQ ID NO: 324 (RNKEVKIALKRLLKRKCC; source 1..18: note = C-terminal domain sequence) | 81.0% | 
SEQ ID NO: 325 (RNKEVKLALKRLLKRKCC; source 1..18: note = C-terminal domain sequence) | 108.0% | 
SEQ ID NO: 326 (RNKEVKMALKRLLKRKCC; source 1..18: note = C-terminal domain sequence) | 107.6% | 
SEQ ID NO: 327 (RNKEVKPALKRLLKRKCC; source 1..18: note = C-terminal domain sequence) | −3.7% | 
SEQ ID NO: 328 (RNKEVKSALKRLLKRKCC; source 1..18: note = C-terminal domain sequence) | 99.1% | 
SEQ ID NO: 329 (RNKEVKTALKRLLKRKCC; source 1..18: note = C-terminal domain sequence) | 129.9% | 
SEQ ID NO: 330 (RNKEVKWALKRLLKRKCC; source 1..18: note = C-terminal domain sequence) | 17.4% | 
SEQ ID NO: 331 (RNKEVKYALKRLLKRKCC; source 1..18: note = C-terminal domain sequence) | 59.4% | 
Ser Gln | 1.0% | 
Ser Ile | 225.3% | 
Tyr Arg | 127.8% | 
Tyr Leu | 95.4% | 
Tyr Pro | 221.7% | 
Tyr Tyr | 108.3% | 
Val Met | 1.3% | 
Val Ser | 4.3% | 
